The nature of the data set: yeast display, Sf9 membrane polyspecificity reagent, FACS + sequencing; frameworks hold sequencing errors. In short, it runs like this: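 Nanobodies came from a synthetic yeast display library in Saccharomyces cerevisiae BJ5465, induced with galactose for 36–48 hours and stained for 1 hour at 4 °C with 10% biotinylated, detergent-solubilized Sf9 membrane reagent. Cells were enriched on streptavidin microbeads and then FACS-sorted, with low and high (top ~1%) gates set on anti-HA fluorescence for expression and streptavidin fluorescence for reagent binding. Each polyreactivity label reflects the gate a clone came from. Genes were amplified by colony PCR, sequenced by MiSeq 2 × 250 and filtered by CDR length.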
Regarding “QVQLVESGGGLVHAGGSLRLSCAAYGRTFKYNAMGWNRQAPGKERELVAAISSRGGSTYYADSVKGRFTISRDNAKNTVYLQMNSLKPEDTAVYYCAIATSSSEYGYDYWGQGTQVTVSS”, the “polyreactivity (PSR sort gate)” value is on record as “high polyreactivity”. For “QVQLVESGGGLVQAGGSLRLSCAASGLTFYYYVMGWYRQAPGKERELVAAISSSGGNTYYADSVKGRFTISRDNEKNTVYLQMNSLKPEDTAVYYCAAGQKRTLDNYWGQGTQVTVSS”, the “polyreactivity (PSR sort gate)” value is given as “high polyreactivity”. Turning to “QVQLVESGGGLVQAGGSLRLSCAASGLTFSKYVMGWYRQAPGKERELVAAITWSGGRTYYADSVKGRFTISRDNAKNTVYLQMNSLKPEDTAVYYCNRKLKGLGYEYDYWGQGTQVTVSS”, the “polyreactivity (PSR sort gate)” value was “high polyreactivity”.

Consider “QVQLVESGGGLVQAGGSLRLSCAASGFIFGSYAMGWSRQAPGKERELVDAITRGGGNTYYADSVKGRFTISRDNAKNTVYLQMNSLKPEDTAVYYCAAVWGKRGYYYWGQGTQVTVSS”, for which the “polyreactivity (PSR sort gate)” value is on record as “high polyreactivity”. With “QVQLVESGGGLVQAGGSLRLSCAASGRTFVYYAMGWYRQAPGKERELVAAIRSGGSTNYADSVKGLFSISRDTAKNTVSLQMNSLKPEDTSVYYCNAVHYYYYKGDYWGQGTQVTVSS”, the “polyreactivity (PSR sort gate)” value is recorded as “high polyreactivity”. As for “QVQLVESGGGLVQAGGSLRLSCAASGRTFSLYAMGWYRQAPGKERELVAGIDWSGGSTYYADSVKGRFTISRDNAKNTVYLQMNSLKPEDTAVYYCAAKYVWVSKASKDYDYWGQGTQVTVSS”, the entry is “low polyreactivity”; as for “QVQLVESGGGLVQAGGSLRLSCAASGRTFIVYAMGWYRQAPGKERELVAAISGRGGGNTYYADSVKGSFTISRDNAKNTVYLQMNSLKPEDTAVYYCAADTYSWYSYRDYYYWGQGTQVTVSS”, “low polyreactivity”. Turning to “QVQLVESGGGLDQAGGSLRLSCAASGSIFGRNAMRWYRQAPGKERELVAAITGYTYYADSVKGRFTISRDNAKNTVYLQMNSLKPEDTAVYYINADHDVGWTYDTEYNYWGQGTQVTVSS”, the “polyreactivity (PSR sort gate)” value is reported as “low polyreactivity”. With “QVQLVESGGGLVQAGGSLRLSCAASGSIFDDNAMGWYRQAPGKERELVAAITSTDSTNYADSVKGRFTISRDNAKNPVYLQMNSLKPEDTAVYYCNAESLGWYRLYTVDYWGQGTQVTVSS”, the “polyreactivity (PSR sort gate)” value is “low polyreactivity”. On to “QVQLQESGGDLEQAGGSLRLSCTAIGTISDVRFMGWYRQAPGKERELVATISYVTITYYADSVKGRFTISRDSEKHRVSAHDEPETGRYRGVLLRYYWGLGTQVTVSS”, for which the “polyreactivity (PSR sort gate)” value was “low polyreactivity”.

On to “QVHLQESGGGLVQAGGSLRLSCAASGTITVLYKMGWFRQAPGKEREFVASINYGTSTYYADSVKGRFTVSRDSAKNTVYLQMNSLKPEDTAVYYCAAAYRWQDVYRYWGQGTQVTVSS”, for which the “polyreactivity (PSR sort gate)” value is “low polyreactivity”. With “QDQLVESGGGLVQAGGSLSLSCAASGSTYDRNAMGWYIQAPGKEREMVAGISFSGGTTYYADSVKGRFTISRDNAKNTVYLQMNRLKPEDTEVYDCAASTYQPGAVPFDYWGQGSQVTVSS”, the “polyreactivity (PSR sort gate)” value is listed as “low polyreactivity”.

On to “QGQLVESGGGLVQAGGSLRLSCAASGSTFANYDMAWYRQAPGKERELVAAITSRGGSTYYADSVKGRFTISRDNAKNTVYLQMNSLKPEDTAVYYCAAVTRNQGSFRYYFWGQGTQVTVSS”, for which the “polyreactivity (PSR sort gate)” value is recorded as “high polyreactivity”. Consider “QVQLVESGGGLVQAGGSLRLSCAASGITFYLYAMGWYRQAPGKERELVAAISSSGGSTYYADSVKGRFTISRDNAKNTVYLQMNSLKPEDTAVYYCNASRRTVPYRYDYWGQGTQVTVSS”, for which the “polyreactivity (PSR sort gate)” value is given as “high polyreactivity”.

As to “QVQLVESGGGLVQAGGSLRLSCAASGSTFWFYTMGWYRQAPGKERELVATITSGGSTNYADSVKGRFTISRDNAKNTVYLQMNSLKPEDTAVYYCAASSVLTNHDYWGQGTQVTVSS”, the “polyreactivity (PSR sort gate)” value is “low polyreactivity”.

For “QVQLVESGGGLVQAGGSLRLSCAASGFTFRVDAMGWYRQAPGKERELVAAISVRGDSTYYADSVKGRFTISRDNAKNTVYVQMNSLKPEDTAVYYSAAAVRTISRFTFYYWGQGTQVTVSS”, the “polyreactivity (PSR sort gate)” value was “high polyreactivity”. In the case of “QVQLVESGGGLVQAGGSLRLSCAASGRVYAMGWYRQAPGKERELVAPITTSGGRTYYADSVKGRFTISRDNAKNSVYCQMNSLKPEDTAVYYCNKPGYPPSDMYYWGQGTQVNVSS”, the “polyreactivity (PSR sort gate)” value was “low polyreactivity”. In the case of “QVQLVESGGGLVQAGGSLRLSCAASGFTFWTYAMGWYRQAPGKERELVAAITGIGGSTYYADSVKGRFTISRDNAKNTVYLQMNSLKPEDTAVYYCAARYQATYPSMGYWGQGTQVTVSS”, the “polyreactivity (PSR sort gate)” value is listed as “low polyreactivity”. Take “QVQLVESGGGLVQAGGSLRLSCAAYGRIFSTYAMGWYRQAPGKERELVAAINSIGGRTYYADSVKGRFTISRDNAKNTVYLQMNSLKPEDTAVYYCAAGYRTRRGLGYYYWGQGTQVTVSS”: the “polyreactivity (PSR sort gate)” value was “high polyreactivity”. On to “QVQLVESGGGLVQAGGSLRLSCAASGSIFYSYAMGWYRQAHGKERELVAAITSGDITYYADSVKGRFTISRDNAKNTVYLQMNSLKPEDTAVYYCAAESYAWWDKQFLYRYDYWGQGTQVTVSS”, for which the “polyreactivity (PSR sort gate)” value was “low polyreactivity”. As for “QVQLGESGGGLVQAGGSLRLSCAASGITFPGYAMGWYRQAPGKERELVARISRSGGSTYYADSVKGRFTISRDNAKNTVYFQMNSLKPEDTAVYYCAAGAYRSGGYSFDDWGQGTQVTVSS”, the entry is “low polyreactivity”; as for “QVQLVESGGGLVQAGGSLRLSCAASGRTFGQYVMGWYRKAPGKERELVAAIRSGGSTYYADSVKGRFTISRDNAKNTVYLQMNSLKPEDTAVYYCAKETYYVTDNFGQVGGEMDYWGQGTQVTVSS”, “low polyreactivity”; as for “QVQLVESGGGLVQAGGSLRLSCAASGFTFPSYAMGWYRQAPGKERELVAAISSRGGSTYYADSVKGRFTISRDNAKNTVYLQMNSLKPEDTAVYYCNRLQVYSYYPYYPWYNYWGQGTQVTVSS”, “high polyreactivity”.

Turning to “QVQRVESGGRLVQAGGSLRLSCAASGRTFWAYAMGWYRQAPGKERELVAAITTSGGSTNYADSVKGRFTISRDNAKNTVYLQMNSLKPEDTAVDYCNADPTYHVVNGVGYWGQGTQVTVSS”, the “polyreactivity (PSR sort gate)” value was “low polyreactivity”.

Take “QVQLVESGGGLVQAGGSLRLSCAASGNNFYVNVMGSYRQAPGKEMEFVAAISTRGVSTSYADSVKGRFTISRDNAKYTVYLQMNSLKPEDTAVYYCAASFRRPQPKGTTYGYLGQGTQVTVSS”: the “polyreactivity (PSR sort gate)” value was “high polyreactivity”. As to “QVQLVESGGGLVQAGGSLRLSCAASGFIFYKYAKGWYRQAPGKEREFVAAITWSGGNTYYADSVKGRFTISRDNAKNTVYLQMNSLKPEDTAVYYCAARDSKWGQGTQVTVSS”, the “polyreactivity (PSR sort gate)” value is “low polyreactivity”. On to “QVQLVESGGGLVQAGGSLRLSCAASGSIFSYYVMGWYRQAPGKERELVARINWSSTSTYYADSVKGRFTISRDNAKNTVYLQMNSLKPEDTAVYYCAAAKRYGRYYEYDYWGQGTQVTVSS”, for which the “polyreactivity (PSR sort gate)” value is “high polyreactivity”. With “QVQLVESGGGLVQAGGSLRLSCAASGSTFTVNAMGWYRQAPGKERELVAVIRKSGTSTYYADSVKGRFTISRDNAKNTVYFQMNSLKPEDTAVYYCAGGGPSTLDDYWGQGTQVTVSS”, the “polyreactivity (PSR sort gate)” value is “low polyreactivity”. Take “QVQLVESGGGLVQAGGSLRLSCAASGGTFPWYTMGWYRQAPGKERELFAAISWRGGRTYYADSVKGRFTISRDNAKNTVYLQMNSLKPEDTAVYYCAATPRYRVYYGSYYLRYDYWGQGTQVTVSS”: the “polyreactivity (PSR sort gate)” value was “high polyreactivity”. Then “QVQLVESGGGLVQAGGSLRLSCAASGLIFYSYAMGWYRQAPGKERELVAAITGGGSTNYADSVKGRFTISRDNAKNTVYLQMNSLKPEDTAVYYCAAAFTLRKYDYWGQGTQVTVSS”, with “low polyreactivity”; and “QVQRVESGGGLVQAGCRLRLSCAASGTFFMGWYRQAPWKSRELVAGISISDGSTYYADSVKGRLTISRDNAKNTVYLQMKSLKPEDTAVYYFAAVFNPTTGFDYWGQGTQVTVSS”, with “low polyreactivity”; and “QVQLVESGGGLDQAGGSLPLSCAASGNTFYPNAMGWYRQAPGKERELVAAITTSGGTTYYADSVKGRFTISRDNANYTVYLQMNSLKPEDTAVYYCAAYWSRDKYDYWGQGTQVTVSS”, with “low polyreactivity”. In the case of “QVQLVESGGGLVQAGGSLRLSCAASGSIFFTNAMGWYRQAPGKERELVASITSSGGSTYYADSVKGRFTISRDNAKNTVYLQMNSLKPEDTAVYYCARDRWPFWYSPSGVYRYYYWGQGTQVTVSS”, the “polyreactivity (PSR sort gate)” value is given as “low polyreactivity”. With “QVQLVESGGGLVQAGGSLRLSCAASGRIFYINDMGCYRQAPGKEREFVASITGSGGRTYYADSVKGRFTISRDNAKNTVYLQMNSLKPEDTAVYYCNADLYVGYLYYLYDYWGQVTQVTVSS”, the “polyreactivity (PSR sort gate)” value was “low polyreactivity”.

Take “QVQLVESGGGLVQAGGSLRLSCAASGITFVRNTMGWYRQAPGKERELVAAISKSGDNTYYADSVKGRFTISRDNAKNTVYLQMNSLKPEDTAVYYCNKAYRKFYYGYDYWGQGTQVTVSS”: the “polyreactivity (PSR sort gate)” value is “high polyreactivity”. As for “QVQLVESGGGLVQAGGSLRLSCAASGLTFGFNAMGWYRQAPGKERELVAVIDSGGSTNYADSVKGRFTISRDNAKNTVYLQMNSLKPEDTAVYYCAADYTGFYPDGSDVDYDYWGQGTQVTVSS”, the “polyreactivity (PSR sort gate)” value is given as “low polyreactivity”.

Take “QVQLVEAGGGLVQAGGSLRLSCAASGQIFRKNARGWYSQAPGKERELVAAINSGGSTKYADSVKGRFTISRDNAKNTVYLQMNSLKPEDTAVDYCAARGRYGVPPGRAHDNWRQGTQVTVSS”: the “polyreactivity (PSR sort gate)” value is “high polyreactivity”.

For the sequence “QVQLVESGGGLVQAGGSLRLSCAASGSTIHDYAMGWYRQAPGKEREFVAAISNSGGSTYYADSLKGRFTISRDNAKNTVYLQMNSLKPEDTAVYYCAADGRWYWDYEYWGQGTQVTVSS”, the “polyreactivity (PSR sort gate)” value is “low polyreactivity”. Turning to “QVQLVESGGGLDQAGGSLRLSCAASGSTFTKNVMGWYRQAPGKERELVAAISSGGRTNYADSVKGRFTISRDNAKNTVYLQMNSLKPEDTAVYFCAADVGYFKSDYWGQGTQVTVSS”, the “polyreactivity (PSR sort gate)” value is recorded as “low polyreactivity”. Consider “QVQLVESGGGLVQAGGSLRLSCAASGSIFKANGMGWYRQAPGKEREFVAAITRSGATTYYADSVKGRFTISRDNAKNTVYLQMNSLKPEDTAVYYCNVKAWRDLYYAGFDYWGQGTQVTVSS”, for which the “polyreactivity (PSR sort gate)” value is “low polyreactivity”. On to “QVQLVESGGGLVQAGGSLRLSCEASGRIFDDNDMGWYRQAPGKERELVAAISSGDSTKYADSVKGRFTITRDNAKNTVYLQMNSLKPEDTAVYYCAAERNHGLVGSESVGRNDYWGQGTQVTVSS”, for which the “polyreactivity (PSR sort gate)” value is reported as “low polyreactivity”.

Source of the values: the nanobody polyreactivity screen of Harvey et al. (2022).
